T1: hICOS-Fc (R&D Systems) (human, UniProt Q9Y6W8 21-141, limits assumed)
T1 construct: Bought from R&D Systems; also called human ICOS; not shown: Fc part of a bought fusion protein; not described
T1 sequence (looked up): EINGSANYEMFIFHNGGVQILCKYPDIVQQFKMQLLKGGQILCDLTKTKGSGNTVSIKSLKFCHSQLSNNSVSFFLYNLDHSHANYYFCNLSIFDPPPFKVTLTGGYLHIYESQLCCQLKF


Key:
[1] = molecular target: putative VISTA-receptor on murine T-cells (2.10 T-cell clone; primary CD4+ T-cells) (mouse); assay: cell-based or functional assay
hICOS-Fc (R&D Systems) [2] = molecular target: T1, hICOS-Fc (R&D Systems); assay: SPR single cycle kinetics (Biacore T200), hICOS-Fc immobilized on a CM5 chip, 1:1 model
hICOS-Fc (R&D Systems) [3] = molecular target: T1, hICOS-Fc (R&D Systems); assay: SPR single cycle kinetics (Biacore T200), hICOS-Fc immobilized on a CM5 chip

Molecule	anti-CD3-induced 2.10 cell proliferation (3H-thymidine) [1] [µg/mL]	Kd (hICOS-Fc (R&D Systems) [2]) [nM]	fold stronger KD than hICOSL-Fc (hICOS-Fc (R&D Systems) [3]) [fold]
VISTA-Fc (murine VISTA extracellular domain fused to the human IgG-1 Fc region; dimeric) (Fc fusion)	> 30		
hICOSL-Fc (R&D Systems), dimeric human ICOS-L ECD Fc fusion (Fc fusion, not shown: a dimerising Fc or GST; small tags and cut ends, Fc-mediated dimer (two copies); the Fc is left out.) DTQEKEVRAMVGSDVELSCACPEGSRFDLNDVYVYWQTSESKTVVTYHIPQNSSLENVDSRYRNRALMSPAGMLRGDFSLRLFNVTPQDEQKFHCLVLSQSLGFQEVLSVEVTLHVAANFSVPVVSAPHSPSQDELTFTCTSINGYPRPNVYWINKTDNSLLDQALQNDTVFLNMRGLYDVVSVLRIARTPSVNIGCCIENVLLQQNLTVGSQTGNDIGERDKITENPVSTGEKNAATWS		2.9	

Next, values leading:

anti-CD3-induced 2.10 cell proliferation (3H-thymidine) [1] [µg/mL]	Kd (hICOS-Fc (R&D Systems) [2]) [nM]	fold stronger KD than hICOSL-Fc (hICOS-Fc (R&D Systems) [3]) [fold]	Molecule
1			murine VISTA.COMP pentamer, histidine tagged (VISTA.COMP.his) (ligand)
	0.9	~3	human ICOS-L.COMP pentamer (human ICOS-L extracellular domain fused to the COMP pentamerization domain, C-terminal histidine tag) (ligand) DTQEKEVRAMVGSDVELSCACPEGSRFDLNDVYVYWQTSESKTVVTYHIPQNSSLENVDSRYRNRALMSPAGMLRGDFSLRLFNVTPQDEQKFHCLVLSQSLGFQEVLSVEVTLHVAANFSVPVVSAPHSPSQDELTFTCTSINGYPRPNVYWINKTDNSLLDQALQNDTVFLNMRGLYDVVSVLRIARTPSVNIGCCIENVLLQQNLTVGSQTGNDIGERDKITENPVSTGEKNAATWSDLGPQMLRELQETNAALQDVRELLRQQVREITFLKNTVMECDACG
